Results as given in patent US20200339678A1 (RIGEL PHARMACEUTICALS, published 2020).

T1: His-tagged recombinant Mouse TIGIT (mouse, UniProt P86176 29-148, limits assumed)
T1 construct: not shown: His tag
T1 sequence (looked up): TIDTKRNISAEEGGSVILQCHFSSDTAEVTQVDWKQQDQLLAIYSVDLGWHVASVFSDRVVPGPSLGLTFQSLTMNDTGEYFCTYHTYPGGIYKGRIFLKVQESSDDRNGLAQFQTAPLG


Biological target: T1, His-tagged recombinant Mouse TIGIT
Assay: ELISA, coated His-tagged mouse TIGIT
Experimental: Binding affinities for antigen binding to anti-TIGIT monoclonal antibodies were determined by ELISA. […] Antibodies to be tested were diluted to 1 μM in PBS buffer containing 1% BSA and diluted 3-fold in a 10-point curve. […] Detection of the secondary antibody was determined using streptavidin-HRP and TMB reagent. All assays were performed at room temperature. Curve-fitting software was used to determine the EC₅₀ for each antibody.

Binder | EC50
Ab25 (Fab, V domains shown, ARV set) VH: EVQLLESGGGLVQPGGSLRLSCAASGFTFSSYGMHWVRQAPGKGLEWVAAIKSSGSSTSYADSVKGRFTISRDNSKNTLYLQMNSLRAEDTAVYYCARVPYGYWMDYWGQGTLVTVSS VL: not shown | 20.9 nM
Ab36 (Fab, V domains shown, ARE set) VH: EVQLLESGGGLVQPGGSLRLSCAASGFTFSSYAMSWVRQAPGKGLEWVASIKSSGSYKSYADSVKGRFTISRDNSKNTLYLQMNSLRAEDTAVYYCAREPYSTWLDYWGQGTLVTVSS VL: not shown | 470 nM
Ab87 (Fab, V domains shown, ARV set) VH: EVQLLESGGGLVQPGGSLRLSCAASGFTFSSYSMSWVRQAPGKGLEWVASIKSSAGYISYADSVKGRFTISRDNSKNTLYLQMNSLRAEDTAVYYCARVPYDYWIDYWGQGTLVTVSS VL: not shown | 230 nM
Ab26 (Fab, V domains shown, ARE set) VH: EVQLLESGGGLVQPGGSLRLSCAASGFTFSSYSMSWVRQAPGKGLEWVADIKSSGSTKSYADSVKGRFTISRDNSKNTLYLQMNSLRAEDTAVYYCAREPYDYWMDYWGQGTLVTVSS VL: not shown | 47.5 nM
Ab65 (Fab, V domains shown, ARE set) VH: EVQLLESGGGLVQPGGSLRLSCAASGFTFSSYAMSWVRQAPGKGLEWVAYIKSNTGSISYADSVKGRFTISRDNSKNTLYLQMNSLRAEDTAVYYCAREPYSVWLDYWGQGTLVTVSS VL: not shown | 778 nM
Ab77 (Fab, V domains shown, ARE set) VH: EVQLLESGGGLVQPGGSLRLSCAASGFTFSSYSMNWVRQAPGKGLEWVAAISGNTGYTYYADSVKGRFTISRDNSKNTLYLQMNSLRAEDTAVYYCAREPYSYWMDYWGQGTLVTVSS VL: not shown | 111 nM
Ab100 (Fab, V domains shown, ARE set) VH: EVQLLESGGGLVQPGGSLRLSCAASGFTFSSYAMSWVRQAPGKGLEWVASINGNAGTISYADSVKGRFTISRDNSKNTLYLQMNSLRAEDTAVYYCAREPYSYWLDYWGQGTLVTVSS VL: not shown | 258 nM
Ab44 (Fab, V domains shown, ARV set) VH: EVQLLESGGGLVQPGGSLRLSCAASGFTFSSYSMHWVRQAPGKGLEWVSAISSDGSYISYADSVKGRFTISRDNSKNTLYLQMNSLRAEDTAVYYCARVPYDVWFDYWGQGTLVTVSS VL: not shown | 128 nM
Ab42 (Fab, V domains shown, ARG set) VH: EVQLLESGGGLVQPGGSLRLSCAASGFTFSSYGMHWVRQAPGKGLEWVARINSNGGSKSYADSVKGRFTISRDNSKNTLYLQMNSLRAEDTAVYYCARGPYGYWFDYWGQGTLVTVSS VL: not shown | 60.5 nM
Ab71 (Fab, V domains shown, ARV set) VH: EVQLLESGGGLVQPGGSLRLSCAASGFTFSSYSMHWVRQAPGKGLEWVASISSSASTSYYADSVKGRFTISRDNSKNTLYLQMNSLRAEDTAVYYCARVPYGVWIDYWGQGTLVTVSS VL: not shown | 477 nM
Ab137 (Fab, V domains shown, ARV set) VH: EVQLLESGGGLVQPGGSLRLSCAASGFTFSSYSMHWVRQAPGKGLEWVASIKGNTGSISYADSVKGRFTISRDNSKNTLYLQMNSLRAEDTAVYYCARVPYDYWIDYWGQGTLVTVSS VL: not shown | 84.9 nM
Ab31 (Fab, V domains shown, ARG set) VH: EVQLLESGGGLVQPGGSLRLSCAASGFTFSSYTMHWVRQAPGKGLEWVANIKSSSSTKYYADSVKGRFTISRDNSKNTLYLQMNSLRAEDTAVYYCARGPYDVWLDYWGQGTLVTVSS VL: not shown | 56.9 nM
Ab51 (Fab, V domains shown, ARE set) VH: EVQLLESGGGLVQPGGSLRLSCAASGFTFSSYAMSWVRQAPGKGLEWVSSIKSNSGSKSYADSVKGRFTISRDNSKNTLYLQMNSLRAEDTAVYYCAREPYSVWMDYWGQGTLVTVSS VL: not shown | 79.8 nM
Ab73 (Fab, V domains shown, ARV set) VH: EVQLLESGGGLVQPGGSLRLSCAASGFTFSSYSMSWVRQAPGKGLEWVASIKGSAGSSSYADSVKGRFTISRDNSKNTLYLQMNSLRAEDTAVYYCARVPYDVWLDYWGQGTLVTVSS VL: not shown | 266 nM
Ab123 (Fab, V domains shown, ARE set) VH: EVQLLESGGGLVQPGGSLRLSCAASGFTFSSYSMSWVRQAPGKGLEWVASISSSAGTSSYADSVKGRFTISRDNSKNTLYLQMNSLRAEDTAVYYCAREPYGVWLDYWGQGTLVTVSS VL: not shown | 578 nM
Ab111 (Fab, V domains shown, ARV set) VH: EVQLLESGGGLVQPGGSLRLSCAASGFTFSSYSMHWVRQAPGKGLEWVSAISGSGGSTYYADSVKGRFTISRDNSKNTLYLQMNSLRAEDTAVYYCARVPYGYWMDYWGQGTLVTVSS VL: not shown | 186 nM
Ab81 (Fab, V domains shown, ARV set) VH: EVQLLESGGGLVQPGGSLRLSCAASGFTFSSYSMHWVRQAPGKGLEWVASIKGNTGSSGYADSVKGRFTISRDNSKNTLYLQMNSLRAEDTAVYYCARVPYDVWIDYWGQGTLVTVSS VL: not shown | 307 nM
Ab117 (Fab, V domains shown, ARE set; also called clone Ab117) VH: EVQLLESGGGLVQPGGSLRLSCAASGFTFSSYAMSWVRQAPGKGLEWVAAIKSSASTIYYADSVKGRFTISRDNSKNTLYLQMNSLRAEDTAVYYCAREPYSVWMDYWGQGTLVTVSS VL: not shown | 10.7 nM
Ab79 (Fab, V domains shown, ARV set) VH: EVQLLESGGGLVQPGGSLRLSCAASGFTFSSYAMHWVRQAPGKGLEWVADIKSNTGYTYYADSVKGRFTISRDNSKNTLYLQMNSLRAEDTAVYYCARVPYGVWIDYWGQGTLVTVSS VL: not shown | 86.6 nM
Ab57 (Fab, V domains shown, ARV set) VH: EVQLLESGGGLVQPGGSLRLSCAASGFTFSSYSMHWVRQAPGKGLEWVAYIKSDTSTIGYADSVKGRFTISRDNSKNTLYLQMNSLRAEDTAVYYCARVPYDVWIDYWGQGTLVTVSS VL: not shown | 305 nM
Ab91 (Fab, V domains shown, ARE set) VH: EVQLLESGGGLVQPGGSLRLSCAASGFTFSSYSMSWVRQAPGKGLEWVAAIKGSAGSSSYADSVKGRFTISRDNSKNTLYLQMNSLRAEDTAVYYCAREPYSYWLDYWGQGTLVTVSS VL: not shown | 242 nM
Ab101 (Fab, V domains shown, ARV set) VH: EVQLLESGGGLVQPGGSLRLSCAASGFTFSSYAMSWVRQAPGKGLEWVADISGSAGTISYADSVKGRFTISRDNSKNTLYLQMNSLRAEDTAVYYCARVPYGYWLDYWGQGTLVTVSS VL: not shown | 535 nM
Ab45 (Fab, V domains shown, ARG set) VH: EVQLLESGGGLVQPGGSLRLSCAASGFTFSSYGMNWVRQAPGKGLEWVARISSSGSYIGYADSVKGRFTISRDNSKNTLYLQMNSLRAEDTAVYYCARGPYGYWLDYWGQGTLVTVSS VL: not shown | 48 nM
Ab119 (Fab, V domains shown, ARV set) VH: EVQLLESGGGLVQPGGSLRLSCAASGFTFSSYSMSWVRQAPGKGLEWVASIKSSTGTISYADSVKGRFTISRDNSKNTLYLQMNSLRAEDTAVYYCARVPYDYWMDYWGQGTLVTVSS VL: not shown | 279 nM
Ab128 (Fab, V domains shown, ARV set) VH: EVQLLESGGGLVQPGGSLRLSCAASGFTFSSYSMNWVRQAPGKGLEWVASIKGSASYTSYADSVKGRFTISRDNSKNTLYLQMNSLRAEDTAVYYCARVPYDYWIDYWGQGTLVTVSS VL: not shown | 265 nM
